The target in the assay is T1, Mre11/Rad50 complex (Q9UZC9, Q9UZC8), HIS fusion (Pyrococcus abyssi, UniProt Q9UZC9 1-415; Q9UZC8 1-880).
T1 construct: Mre11 of Pyrococcus abyssi, full length, in the FL complex; Rad50 of Pyrococcus abyssi, full length, in the FL complex; also called Mre11 complex; source: E. coli Rosetta, purified on magnetic beads (details in Materials S1); not shown: His tag, N-terminal, kept
The assay is described as follows: pull-down; 10 ug HIS fusion Mre11/Rad50 immobilised on Co2+ magnetic beads, with or without DNase I treatment, incubated with 0.5 ug PCNA 1 h at room temperature in TrisHCl 20 mM pH 8, NaCl 150 mM, DTT 1 mM with BSA; Western blot with anti-PCNA and anti-HisTag. The settings on record: both partners purified. (In general: In western blotting, separated proteins are transferred to a membrane and probed.)

T1 sequence (Q9UZC9 whole entry, chain 1 of 2, the tested form may be a part): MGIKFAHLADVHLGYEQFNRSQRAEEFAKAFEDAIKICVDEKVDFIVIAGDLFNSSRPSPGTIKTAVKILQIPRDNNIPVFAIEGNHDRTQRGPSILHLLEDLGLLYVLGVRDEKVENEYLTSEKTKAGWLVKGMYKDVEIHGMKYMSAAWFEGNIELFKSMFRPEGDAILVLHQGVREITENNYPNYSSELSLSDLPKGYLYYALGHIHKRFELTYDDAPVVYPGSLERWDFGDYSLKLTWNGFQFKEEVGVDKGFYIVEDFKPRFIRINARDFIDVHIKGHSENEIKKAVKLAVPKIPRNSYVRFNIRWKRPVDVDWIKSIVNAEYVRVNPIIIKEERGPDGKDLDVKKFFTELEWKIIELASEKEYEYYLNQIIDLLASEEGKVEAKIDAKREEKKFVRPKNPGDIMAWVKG
T1 sequence (Q9UZC8 whole entry, chain 2 of 2, the tested form may be a part): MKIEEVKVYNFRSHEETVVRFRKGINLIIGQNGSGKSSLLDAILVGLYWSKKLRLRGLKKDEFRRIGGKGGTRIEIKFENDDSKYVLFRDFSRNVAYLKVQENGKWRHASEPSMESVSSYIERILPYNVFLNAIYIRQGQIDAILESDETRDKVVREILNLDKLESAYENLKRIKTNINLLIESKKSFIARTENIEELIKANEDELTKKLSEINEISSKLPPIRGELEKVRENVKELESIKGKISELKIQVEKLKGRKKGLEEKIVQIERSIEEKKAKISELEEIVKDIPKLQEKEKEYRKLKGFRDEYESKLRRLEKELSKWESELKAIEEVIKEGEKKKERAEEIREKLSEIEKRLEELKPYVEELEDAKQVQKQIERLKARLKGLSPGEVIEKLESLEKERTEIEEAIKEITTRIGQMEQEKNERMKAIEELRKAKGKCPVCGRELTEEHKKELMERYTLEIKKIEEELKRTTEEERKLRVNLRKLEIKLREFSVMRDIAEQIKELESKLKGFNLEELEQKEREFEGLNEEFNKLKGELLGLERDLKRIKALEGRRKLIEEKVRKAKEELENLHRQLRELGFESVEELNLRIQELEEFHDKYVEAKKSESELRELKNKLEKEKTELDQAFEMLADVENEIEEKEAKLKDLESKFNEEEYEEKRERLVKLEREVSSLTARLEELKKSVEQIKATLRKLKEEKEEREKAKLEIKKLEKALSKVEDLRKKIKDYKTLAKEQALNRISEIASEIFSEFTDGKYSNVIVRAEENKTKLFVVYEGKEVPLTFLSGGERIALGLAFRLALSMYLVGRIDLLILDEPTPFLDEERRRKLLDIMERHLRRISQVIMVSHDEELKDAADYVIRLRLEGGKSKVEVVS

B1: purified PCNA (prey of the Mre11/Rad50 pull-down) (natural protein, Pyrococcus abyssi, UniProt Q9UYX8 1-249, looked up)
chain: MPFEIVFEGAKEFAQLIETASRLIDEAAFKVTEEGISMRAMDPSRVVLIDLNLPASIFSKYEVDGEETIGVNMDHLKKVLKRGKAKETLILRKGEENFLEISLQGTATRTFKLPLIDVEEIEVDLPELPFTAKVVILGDVIKEAVKDASLVSDSMKFIAKENEFTMRAEGETQEVEVKLTLEDEGLLDIEVQEETKSAYGISYLSDMVKGLGKADEVTIKFGNEMPMQMEYYIRDEGRLIFLLAPRVEE
notes: it was the prey on Co2+ beads and was detected with anti-PCNA, so it is kept apart from m1; source: purified
In the case of B1, the binding result is “binds”.

(Values after PMC3820547, “An Extended Network of Genomic Maintenance in the Archaeon Pyrococcus abyssi Highlights Unexpected Associations between Eucaryotic Homologs” (PLoS ONE, 2013).)
